Measured values reported in patent US20260132208A1 (DOMAIN THERAPEUTICS, published 2026).
Several values for one entry are separate records, joined by “and”; a condition that tells them apart may be missing. Equal entries are not always repeated.

B1: anti-CCR8 mAb 1-16 (antibody, V domains shown)
VH: EVQLQQSGPELVKPGASVKISCKASVYSFTGSYMHWVKQSHVKSLEWIGRINPYNGATSYNQNFKDKASLTVDKSSSTAYMELHSLTSEDSAVYYCATTLLRLLDYWGQGTTLTVSS
VL: DIVMTQAAFSNPVTLGTSASISCRSSKSLLHSNGITYLYWYLQKPGQSPQLLIYQMSNLASGVPDRFSSSGSGTDFTLRISRVEAEDVGVYYCAQNLELPWTFGGGTKLEIK
notes: Murine hybridoma mAb
B2: anti-CCR8 mAb 1-15 (antibody, V domains shown)
VH: EVQLQQSGPELVKPGASVKISCKTSGYTFTEYTMHWVKQSHGKSLEWIGGINPNNGDTNYNQKFMGKATLTVDKSSSTAYMELRSLTSEDSAVYYCVRRLLRRGAMDYWGQGTSVTVSS
VL: DIVLTQSPASLAVSLGQRATISCRASENVEYYGTSLMQWFQQKPGQPPKLLIYAASNVDSGVPARFSGSGSGTDFSLNIHPVEEDDIAMYFCQQSRKVPWTFGGGTKLDIK
notes: Murine hybridoma mAb
B3: anti-CCR8 mAb 1-17 (antibody, V domains shown)
VH: QVQLQQPGSELVRPGASVKLSCKASGYTFTSYWMHWVKQRPGQGLEWIGNIWPGSASTNYDEKFKNKATLTVDTSSSTAYMQLSSLTSEDSAVYYCIRGGKGAMDYWSQGTSVTVSS
VL: DVVMTQIPLSLPVSLGDQASISCRSSQSLENSYGNTYLNWYLQKPGQSPQLLIYRVSNRFSGVLDRFSGSGSGTDFTLKISRVEAEDLGVYFCLQVTHVPPTFGAGTKLELK
notes: Murine hybridoma mAb
B4: anti-CCR8 mAb 1-10 (antibody, V domains shown)
VH: EVQLQQSGPELVKPGASVKISCKTSGYTFTEYTIHWVKQSHGESLEWVGGINPNNGNTRYDQKFKGKATLTIDKSSSPAYMELRSLTSEDSAVYYCARVARSSGSGPYAMDYWGQGTSVTVSS
VL: DVVMTQTPLSLPVSLGDQASISCRCTQSLLHTNGDTYLHWYLQKPGQSPKLLIYKVSNRFSGVPDRFSGSGSGTDFTLKISRVEAEDLGVYFCSQSTHVPYTFGGGTKLEIK
notes: Murine hybridoma mAb
B5: anti-CCR8 mAb 1-11 (antibody, V domains shown)
VH: QVQLQQPGAELVKPGASVKMSCKATGYTFTGYNMHWVKQTPGQGLEWIGAISPGKGDTSYNLKFKGKATLTTDKSSSTAYMQLSSLTSADSAVYYCARSGGTPFAYWGQGTLVTVSA
VL: DVVMTQTPLSLPVSLGDQASISCRSSQSLVHSNGDTYLYWYLQKPGQSPKLLIYKVSNRFSGVPDRFSGSGSGTDFTLKINRVEAEDLGVYFCSQSTHVPYTFGGGTKLEIK
notes: Murine hybridoma mAb

Tests used:
human CCR8 [1] = molecular target: T1, human CCR8 (human, UniProt P51685 1-355); assay: cell-based or functional assay
human CCR8 [2] = molecular target: T1, human CCR8; assay: flow cytometry, hCCR8-transfected CHO-K1 cells
Method: Briefly, 1.10⁵ cells per well in a 96 well plate were incubated with a dilution of unconjugated anti-CCR8 mAb at 10 μg/mL then diluted at 1/3.33, 4 dilution points (during 30 min at 4° C.). In human activated T cells model, prior to mAb incubation, cells were first incubated with 200 nM of hCCL1 (R&D Systems, Minneapolis, MN, USA) or buffer PBS (Invitrogen by Thermofisher Scientific, Illkirch-Graffenstaden, France) supplemented by 2% Fetal Bovine Serum (Invitrogen by Thermofisher Scientific, Illkirch-Graffenstaden, France) and 2 mM EDTA (Invitrogen by Thermofisher Scientific, Illkirch-Graffenstaden, France) during 1 hour at 4° C. To determine EC50 value, 8 concentrations of anti-CCR8 mAb were tested. Unbound antibodies were washed away with PBS (Invitrogen by Thermofisher Scientific, Illkirch-Graffenstaden, France) supplemented by 2% Fetal Bovine Serum (Invitrogen by Thermofisher Scientific, Illkirch-Graffenstaden, France) and 2 mM EDTA (Invitrogen by Thermofisher Scientific, Illkirch-Graffenstaden, France). Subsequently, cells are centrifuged (5 min at 400 g) and bound antibody is detected with F(ab′)2-Goat anti-Mouse IgG (H+L) Cross-Adsorbed Secondary Antibody, Alexa Fluor 488 (dilution 1/500) (Invitrogen by Thermofisher Scientific, Illkirch-Graffenstaden, France) or with F(ab′)₂-Goat anti-Human IgG Fc Secondary Antibody, PE (Invitrogen by Thermofisher Scientific, Illkirch-Graffenstaden, France) (dilution 1/1000) at 4° C. for 30 min. Detection reagent is washed away and cells are centrifuged (5 min at 400 g) and resuspended in 30 μL PBS. Bound detection antibody is quantified on a MacsQuant16 (Miltenyi, Gladbach, Germany) (B1 or B2 channel, 5000 events per acquisition). During the experiment, the respective isotype mAb controls (mouse IgG1, mouse IgG2a, mouse IgG2b, mouse IgG3 or human IgG1) (Biolegend, Amsterdam, The Netherlands) are included to exclude any unspecific binding events. EC50 values were determined via nonlinear fit “log (agonist) vs.response—Variable slope (four parameters)” function of Graphpad prism. EC50 values were not constantly determined in the same experiments.

human CCR8 [3] = molecular target: T1, human CCR8; assay: cell-based or functional assay; remark: listed apart in the source
human CCR8 [4] = molecular target: T1, human CCR8; assay: cell-based or functional assay; remark: listed apart in the source
human CCR8 [5] = molecular target: T1, human CCR8; assay: cell-based or functional assay; remark: listed apart in the source
human CCR8 [6] = molecular target: T1, human CCR8; assay: flow cytometry, inhibition of hCCL1-AF647 (10 nM) binding to hCCR8-CHO cells
Method: The hCCR8 transfected CHO cell line was dispatched at a density of 1.105 per well in a 96-well plate. Cells were incubated for 30 min at 4° C. with or without anti-CCR8 mAb tested at 10 μg/mL then diluted at 1/3. Unbound antibodies were washed away with PBS (Gibco, Villebon-sur-yvette, France) supplemented by 2% Fetal Bovine Serum (Invitrogen by Thermofisher Scientific, Illkirch-Graffenstaden, France) and 2 mM EDTA. […] After washing unbound ligands, CCL1 bound detection is quantified on a MacsQuant16 (Miltenyi, Gladbach, Germany) (R1 channel, 5 000 events per acquisition).
For IC₅₀ determination, a concentration response curve is performed using 8 concentrations of mAb. Curves are fitted and IC₅₀ of CCL1 binding blocking activity is calculated using the sigmoidal dose-response (variable slope) model on GraphPad Prism 9 (GraphPad Software, San Diego, CA, USA).

pm3 = molecular target: T2, pm3 (Y17 sulfated; Y15 and Y16 not sulfated); assay: ELISA on coated peptide [cont.]
T2 construct: also called sulfated CCR8 N-terminal peptide pm3
Method: (§1) The specific binding properties of antibodies were evaluated by ELISA with coated CCR8 related peptides (500 ng/ml) in carbonate/bicarbonate buffer. Different peptides were used as described in Table 1 (see Example 1). Each anti-CCR8 mAb was tested at 1 μg/mL then diluted at 1/10. After an incubation at room temperature during 90 min, unbound mAbs were removed by washings. […] After washings, 3,3′,5,5′-tetramethylbenzidine (TMB) (Interchim, Montluçon, France) was added for 15 min. Then the optical density (OD) was determined by using a multiplate reader (Tecan, Lyon, France) and correlated with mAb reactivity on the panel of coated peptides.

pm8 = molecular target: T3, pm8 (Y15, Y16 and Y17 sulfated); assay: ELISA on coated peptide [cont.]
T3 construct: also called sulfated CCR8 N-terminal peptide pm8
Method: as §1

pm5 = molecular target: T4, pm5 (Y15 and Y17 sulfated; Y16 not sulfated); assay: ELISA on coated peptide [cont.]
T4 construct: also called sulfated CCR8 N-terminal peptide pm5
Method: as §1

pm6 = molecular target: T5, pm6 (Y16 and Y17 sulfated; Y15 not sulfated); assay: ELISA on coated peptide [cont.]
T5 construct: also called sulfated CCR8 N-terminal peptide pm6
Method: as §1

T2 sequence (peptide, as listed by the source): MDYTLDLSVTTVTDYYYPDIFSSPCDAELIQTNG
T5 sequence (peptide, as listed by the source): as above
T3 sequence (peptide, as listed by the source): as above
T4 sequence (peptide, as listed by the source): as above

IC50 of CCL1-induced hCCR8 Gi2 signaling (BRET, HEK-293) (human CCR8 [1])	% positive cells (human CCR8 [2]) [%]	MFI fold change to isotype ctrl (human CCR8 [2]) [fold]	IC50 of CCL1-induced hCCR8 Gi2 signaling (BRET), pH 6.5 (human CCR8 [3])	IC50 of CCL1-induced hCCR8 Gi2 signaling (BRET), pH 7.4 (human CCR8 [3])	extrapolated top plateau of hCCL1 curve with 5 µg/mL mAb, protocol #3 (human CCR8 [4])	residual hCCL1 (100 nM) Gi2 response, protocol #2, mAb 0.08 µg/mL (human CCR8 [5]) [%]	residual hCCL1 (100 nM) Gi2 response, protocol #2, mAb 0.4 µg/mL (human CCR8 [5]) [%]	residual hCCL1 (100 nM) Gi2 response, protocol #2, mAb 10 µg/mL (human CCR8 [5]) [%]	residual hCCL1 (100 nM) Gi2 response, protocol #3, mAb 0.05 µg/mL (human CCR8 [5]) [%]	residual hCCL1 (100 nM) Gi2 response, protocol #3, mAb 0.5 µg/mL (human CCR8 [5]) [%]	residual hCCL1 (100 nM) Gi2 response, protocol #3, mAb 5 µg/mL (human CCR8 [5]) [%]	IC50 (human CCR8 [6])	binding result (pm3)	binding result (pm8)	binding result (pm5)	binding result (pm6)	Binder
0.092 µg/mL and 0.616 nM	34.7	2.34	0.162 µg/ml and 1.08 nM	0.152 µg/ml and 1.01 nM	292 % of hCCL1 (100 nM)	97	96	84	96	81	73	6.41 µg/mL and 43 nM	–	–	–	–	B1
0.019 µg/mL and 0.129 nM	73.4	6.52	–	–	135000 % of hCCL1 (100 nM)	99	102	95	102	97	67	0.75 µg/mL and 5.01 nM	binds	binds	binds	binds	B2
0.026 µg/mL and 0.172 nM	81.6	9.92	–	–	193000 % of hCCL1 (100 nM)	99	83	56	116	90	45	1.18 µg/mL and 7.92 nM	–	–	–	–	B3
0.046 µg/mL and 0.306 nM	56.2	4.78	–	–	855 % of hCCL1 (100 nM)	104	46	28	80	57	45	~0.6 µg/mL and 4.01 nM	binds	binds	binds	binds	B4
0.129 µg/mL and 0.86 nM	76.2	8.37	–	–	2880 % of hCCL1 (100 nM)	–	–	–	102	98	84	0.72 µg/mL and 4.82 nM	binds	binds	binds	binds	B5
